Data on four substances can be found in doi:10.1101/2021.12.16.472884.

One may read the stoichiometry N as a count of units in the complex or per binding partner.

What all share (test): SEC
Background: In gel filtration, larger molecules generally elute earlier.

The target in assay [1] is His6 tagged recombinant pNL4-3-derived IN R262A/R263A/D256N/D270N (HIV-1 (NL4-3)).
In assay [2] the target is His6 tagged recombinant pNL4-3-derived IN R262A/R263A/D256R (HIV-1 (NL4-3)).
Assay [3] concerns the target His6 tagged recombinant pNL4-3-derived IN R269A/K273A/D256N/D270N (HIV-1 (NL4-3)).
For assay [4], the target named is His6 tagged recombinant pNL4-3-derived IN R269A/K273A/D256R (HIV-1 (NL4-3)).

As for “His6 tagged recombinant pNL4-3-derived IN R262A/R263A/D256N/D270N (enzyme)”, in assay [1], the stoichiometry N was 4.

Regarding “His6 tagged recombinant pNL4-3-derived IN R262A/R263A/D256R (enzyme)”, in assay [2], the stoichiometry N is 4.

“His6 tagged recombinant pNL4-3-derived IN R269A/K273A/D256N/D270N (enzyme)”: in assay [3], the stoichiometry N came to 4.

For the substance “His6 tagged recombinant pNL4-3-derived IN R269A/K273A/D256R (enzyme)”, the stoichiometry N in assay [4] turned out to be 4.
